Experimental findings from PMC5084272 are described below.

Several values for one entry are separate records, joined by “and”; a condition that tells them apart may be missing. Equal values may be shown once.

This assay has as its target EGFP-labeled Kif15 (EGFP-Kif15) (human). Nature of the assay: single-molecule fluorescence intensity and photobleaching steps.

Turning to “EGFP-labeled Kif15 (EGFP-Kif15) (natural protein)”, the stoichiometry N is 2 and > 2.

For orientation: stoichiometry N means a count of units in the complex or per binding partner.
